According to patent US9657279B2, “Biological systems for production of commercially valuable compounds” (priority 2007, dated 2017):

Key:
RAD50Δ mutant = type: cell-based, S. cerevisiae; details: RAD50Δ mutant compared with W303a, OD600 at 24 hours
Description: (§1) FIG. 11A-D: Methyl iodide production in recombinant S. cerevisiae. FIG. 11A. CH3I production pathway. The B. maritima MHT is expressed with a N-terminal vacuole targeting tag. The […] MHT methylates iodide ions using SAM as a methyl donor. FIG. 11B, CH3I measured in culture headspace over time. Activity on glucose-grown cells is shown. FIG. 11C, CH3I yields in grams per liter of culture per day. Values for the culturable red algae E. muricata are taken from the literature. Yields from B. maritima MHT-expressing E. coli and S. cerevisiae are calculated by comparison to standard curves. FIG. 11D, CH3I toxicity in yeast. Exponential phase cultures were diluted to an OD600 of 0.05 and commercially available CH3I was added. OD600 was measured at 24 hours of growth. The W303a lab strain is shown in filled boxes, the DNA methylation-sensitive RAD50Δ mutant is shown in open boxes.
(§2) Individual colonies were inoculated in YP media with 2% glucose and grown overnight. Cultures were diluted to an OD600 of 0.05 and methyl iodide was added to the specified amount. […] OD600 was measured by spectrometry with YP media used as a blank. Each data point was performed in triplicate. The RAD50Δ mutant was obtained from the Saccharomyces Genome Deletion Project (Invitrogen).

S. cerevisiae W303a = test: Methyl iodide toxicity assay in yeast; type: cell-based; details: W303a lab strain, OD600 at 24 hours of growth, commercially available CH3I added
Description: as §1, §2

S. cerevisiae W303 = test: Methyl iodide production by vacuole-targeted MHT in yeast; type: cell-based; details: N-terminal carboxypeptidase Y tag versus cytosolic enzyme, vector pCM190
Description: In one approach, for illustration and not limitation, the coding sequence of B. maritima methylchloride transferase (MCT) is synthesized and cloned into a high copy vector under the control of a tet-repressible CYC promoter (plasmid pCM190, Gari et al, 1997, Yeast 13:837-48.). The MCT coding sequence is fused to a N-terminal peptide domain from carboxypeptidase Y known to target pendant proteins to the yeast vacuole (amino acid sequence: […] (SEQ ID NO:1), Valls et al., 1990, J Cell Biol. 111:361-8.) This expression system is transformed into S. cerevisiae strain W303a. […] Cultures are grown at 30 degrees with 250 rpm shaking, and methyl iodide production assayed at specified intervals via GC-MS. […] Oven temperature is programmed from 50 degrees (1 min) to 60 degrees (10 degrees/min).
We fused a 16 amino acid vacuolar targeting tag ([…]) from yeast carboxypeptidase Y to the N-terminus of the B. maritima MCT and expressed the enzyme from the vector pCM190. […] We next expressed the cytosolic and vacuolar targeted enzymes in a VPS33A background, which is unable to form functional vacuoles.

E. coli [1] = details: library of 89 genes, 100 mM sodium halide salt, headspace GC-MS
Description: Methyl halide production was sampled by analyzing the headspace gas using GC-MS (Supplementary Information).
Bacteria carrying MHT expression vectors were inoculated from freshly streaked plates and grown overnight. Cells were diluted 100-fold into media containing 1 mM IPTG and 100 mM appropriate sodium halide salt. Culture tubes were sealed with a rubber stopper and grown at 37 degrees for 3 hours. Yeast carrying MHT expression vectors were streaked on uracil dropout plates from freezer stocks (15% glycerol) and grown for 48 hours. Individual colonies were inoculated into 2 mL of synthetic complete uracil dropout media and grown overnight at 30 degrees. Cultures were next inoculated into 100 mL fresh synthetic complete uracil dropout media and grown for 24 hours. […] 10 mL of this concentrated culture was aliquoted into 14 mL culture tubes and sealed with a rubber stopper. Cultures were grown at 30 degrees with 250 rpm shaking.

E. coli [2] = tested on: E. coli
Description: Methyl halide production can be measured by gas chromatography. In the experiments described below an Agilent gas chromatography/mass spectrometry (GC/MS) system was used. Most often the “AIR.U” tune file, uses an ionization voltage of 1341. In some experiments an ionization voltage of about 1250 was used. A solvent delay of 0 was set and the scan parameters set to 15-100 MW. The injection port and column were preset to 50° C. The sample to be tested was mixed by shaking for a few seconds. 100 μL of the headspace gas was extracted with a gas-tight syringe. The sample gas was manually injected into the GCMS injection port. The GCMS program was started with the following settings: 1:00 at 50° C.; a ramp of 10° C. per min to 70° C. (the sample typically came off at ˜52° C.); 1:00 at 70° C. The column was then cleaned (ramp to 240° C. for 2 minutes). The sample peak was identified by extracting the GC peak corresponding to 50MW (−0.3, +0.7). This peak was integrated to produce the “GC 50MW” data.
For each strain a single colony was picked and grown overnight (10-14 hrs) in 20 mL of LB miller in a 30 mL glass test tube with aeration (a loose cap) at 37 C and 250 rpm shaking. The culture was spun down in a swinging bucket centrifuge for 5 min @3000×g. […]

CI [methyl iodide]
sensitivity to methyl iodide (RAD50Δ mutant): increased sensitivity | level up to which yeast were resistant to deleterious methylating effects of methyl iodide (S. cerevisiae W303a): > 5000 µg/mL

B1: B. maritima: methyl halide transferase from Batis maritima, SEQ ID NO: 3 (protein, listed as Batis maritima)
chain: MSTVANIAPVFTGDCKTIPTPEECATFLYKVVNSGGWEKCWVEEVIPWDLGVPTPLVLHLVKNNALPNGKGLVPGCGGGYDVVAMANPERFMVGLDISENALKKARETFSTMPNSSCFSFVKEDVFTWRPEQPFDFIFDYVFFCAIDPKMRPAWGKAMYELLKPDGELITLMYPITNHEGGPPFSVSESEYEKVLVPLGFKQLSLEDYSDLAVEPRKGKEKLARWKKMNN
increase in methyl iodide production rate by targeting to the vacuole (S. cerevisiae W303): 50% | methyl halide activity on chloride, bromide and iodide (E. coli [1]): highest activity of all genes on each ion | methyl bromide production (E. coli [2]; 165 mM NaBr, 100 uM IPTG, 1.5 hours, headspace GC/MS): best | specificity of methyl halide production (E. coli [2]; methyl bromide versus methyl iodide): significant specificity for methyl bromide production
